In assay [1] the target is T1, cynomolgus monkey FcγRIIa2 extracellular domain, His-tagged (cynomolgus monkey).
T1 construct: also called cyno FcgRIIa2
T1 chain: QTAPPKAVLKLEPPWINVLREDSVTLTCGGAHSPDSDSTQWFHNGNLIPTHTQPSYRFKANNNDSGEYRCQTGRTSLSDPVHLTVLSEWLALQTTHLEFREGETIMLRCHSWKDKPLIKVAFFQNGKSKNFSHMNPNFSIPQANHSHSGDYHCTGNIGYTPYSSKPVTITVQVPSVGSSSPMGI
As to the kind of experiment: SPR (Biacore), 25C, antibody captured, FcgR as analyte. On the procedure:
(§1) The kinetic analysis of interactions between these antibodies and FcγR was carried out using BIACORE® T200 or BIACORE® 4000 (GE Healthcare). HBS-EP+ (GE Healthcare) was used as the running buffer, and the measurement temperature was set to 25° C. […] After the measurement, the antibody captured on the chip was washed off by allowing reaction with 10 mM glycine-HCl, pH1.5 and 25 mM NaOH so that the chip was regenerated and used repeatedly. The sensorgrams obtained as measurement results were analyzed by the 1:1 Langmuir binding model using the BIACORE® Evaluation Software to calculate the binding rate constant ka (L/mol/s) and dissociation rate constant kd (1/s), and the dissociation constant KD (mol/L) was calculated from these values. […] Regarding such interactions, KD values were calculated using the following 1:1 binding model described in BIACORE® T100 Software Handbook BR1006-48 Edition AE.
(SPR reads the build-up and loss of mass on a sensor chip optically.)

The target in assay [2] is T2, human FcγRIIaH extracellular domain, His-tagged (human, UniProt P12318 34-217).
T2 construct: also called human FcgRIIaH; FcγRIIa type H
T2 sequence: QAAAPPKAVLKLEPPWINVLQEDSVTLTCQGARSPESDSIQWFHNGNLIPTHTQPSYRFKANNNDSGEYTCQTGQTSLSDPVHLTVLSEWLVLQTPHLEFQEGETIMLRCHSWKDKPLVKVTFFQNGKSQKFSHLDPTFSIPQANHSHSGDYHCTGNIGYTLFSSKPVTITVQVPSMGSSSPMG
The description is as above. As to the method:
as §1

For assay [3], the target named is T3, human FcγRIIIaV extracellular domain, His-tagged (human, UniProt P08637 17-208).
T3 construct: also called human FcgRIIIaV
Described as above. On the procedure: as §1
T3 sequence (P08637 17-208 F176V): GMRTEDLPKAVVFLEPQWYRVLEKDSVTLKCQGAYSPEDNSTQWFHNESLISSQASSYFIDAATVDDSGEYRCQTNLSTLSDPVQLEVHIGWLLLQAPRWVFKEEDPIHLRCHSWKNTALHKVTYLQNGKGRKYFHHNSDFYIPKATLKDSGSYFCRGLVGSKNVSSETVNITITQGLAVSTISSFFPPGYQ

The target in assay [4] is T4, human FcγRIIaR extracellular domain, His-tagged (human, UniProt P12318 34-217).
T4 construct: also called human FcgRIIaR; FcγRIIa type R
T4 chain: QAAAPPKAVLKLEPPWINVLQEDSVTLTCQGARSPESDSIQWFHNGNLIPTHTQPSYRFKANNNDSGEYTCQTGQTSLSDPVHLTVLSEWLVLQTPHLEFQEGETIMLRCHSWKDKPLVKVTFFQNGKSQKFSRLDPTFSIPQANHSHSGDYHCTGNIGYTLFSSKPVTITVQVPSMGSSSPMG
The assay is described as above. As to the method: as §1

The target of assay [5] is T5, cynomolgus monkey FcγRIIb extracellular domain, His-tagged (cynomolgus monkey).
T5 construct: also called cyno FcgRIIb
T5 chain: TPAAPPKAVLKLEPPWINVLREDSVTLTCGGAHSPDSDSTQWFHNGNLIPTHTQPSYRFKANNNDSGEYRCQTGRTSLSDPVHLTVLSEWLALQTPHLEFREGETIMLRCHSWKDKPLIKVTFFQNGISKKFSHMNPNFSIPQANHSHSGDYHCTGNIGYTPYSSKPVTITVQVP
The assay is described as above. As to the method:
as §1

The target in assay [6] is T1, cynomolgus monkey FcγRIIa2 …. As to the kind of experiment: SPR (Biacore), 25C, KD of SG1 / KD of variant.
Assay [7] has as its target T6, human FcγRIIb extracellular domain, His-tagged (human, UniProt P31994 43-217).
T6 construct: also called human FcgRIIb
T6 sequence: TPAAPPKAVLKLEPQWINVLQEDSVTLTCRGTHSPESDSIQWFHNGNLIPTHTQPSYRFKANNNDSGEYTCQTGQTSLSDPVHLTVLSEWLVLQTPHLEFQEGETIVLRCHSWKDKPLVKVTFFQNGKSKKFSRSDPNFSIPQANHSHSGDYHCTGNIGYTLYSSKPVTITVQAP
Briefly: SPR (Biacore), 25C, KD of SG1 / KD of variant.

Assay [8] concerns the target T2, human FcγRIIaH extracellular domain, …. Briefly: SPR (Biacore), 25C, KD of SG1 / KD of variant.
The target of assay [9] is T3, human FcγRIIIaV extracellular domain, …. Briefly: SPR (Biacore), 25C, KD of SG1 / KD of variant.
The target of assay [10] is T7, cynomolgus monkey FcγRIIa1 extracellular domain, His-tagged (cynomolgus monkey).
T7 construct: also called cyno FcgRIIa1
T7 chain: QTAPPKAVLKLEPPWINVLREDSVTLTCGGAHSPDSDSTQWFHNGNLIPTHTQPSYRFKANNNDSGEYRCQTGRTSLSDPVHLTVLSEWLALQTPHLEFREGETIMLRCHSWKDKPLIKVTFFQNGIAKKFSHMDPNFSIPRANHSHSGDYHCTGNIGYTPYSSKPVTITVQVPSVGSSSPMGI
As to the kind of experiment: SPR (Biacore), 25C, KD of SG1 / KD of variant.

The target in assay [11] is T4, human FcγRIIaR extracellular domain, …. As to the kind of experiment: SPR (Biacore), 25C, KD of SG1 / KD of variant.
Assay [12] concerns the target T5, cynomolgus monkey FcγRIIb extracellular …. As to the kind of experiment: SPR (Biacore), 25C, KD of SG1 / KD of variant.
Assay [13] has as its target T8, cynomolgus monkey FcγRIIIaS extracellular domain, His-tagged (cynomolgus monkey, UniProt Q8SPW2 21-206 at identity 1.00)).
T8 construct: also called cyno FcgRIIIaS
T8 chain: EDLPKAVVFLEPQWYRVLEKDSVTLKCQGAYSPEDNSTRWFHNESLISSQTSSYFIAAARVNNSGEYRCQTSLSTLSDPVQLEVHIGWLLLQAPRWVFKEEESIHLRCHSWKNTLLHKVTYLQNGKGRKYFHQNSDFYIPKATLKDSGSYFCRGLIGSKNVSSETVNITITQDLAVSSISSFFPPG
Briefly: SPR (Biacore), 25C, KD of SG1 / KD of variant.

The target of assay [14] is T9, cynomolgus monkey FcγRIIa3 extracellular domain, His-tagged (cynomolgus monkey).
T9 construct: also called cyno FcgRIIa3
T9 chain: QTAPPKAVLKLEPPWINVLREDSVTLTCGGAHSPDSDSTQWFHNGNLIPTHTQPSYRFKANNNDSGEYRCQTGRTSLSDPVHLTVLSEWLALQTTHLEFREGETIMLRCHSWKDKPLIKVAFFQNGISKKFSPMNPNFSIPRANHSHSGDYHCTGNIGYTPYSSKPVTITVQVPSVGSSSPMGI
Briefly: SPR (Biacore), 25C, KD of SG1 / KD of variant.

The target of assay [15] is T10, human FcγRIIaH extracellular domain, His-tagged (human, UniProt P12318 34-217).
T10 construct: also called human FcγRIIa (type H); FcgRIIaH; not shown: His-tag added to the C-terminus
T10 sequence: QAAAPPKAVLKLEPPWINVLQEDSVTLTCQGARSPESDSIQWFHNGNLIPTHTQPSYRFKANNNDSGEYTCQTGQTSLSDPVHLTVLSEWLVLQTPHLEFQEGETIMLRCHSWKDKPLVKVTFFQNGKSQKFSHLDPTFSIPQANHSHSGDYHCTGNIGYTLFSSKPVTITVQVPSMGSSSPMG
As to the kind of experiment: SPR (BIACORE), antibody captured on chip, FcγR as analyte, 25 C; KD of SG1 divided by KD of the variant. As to the method:
as §1

Assay [16] addresses T11, human FcγRIIIaV extracellular domain, His-tagged (human, UniProt P08637 17-208).
T11 construct: also called human FcγRIIIa (V158 allotype); FcgRIIIaV; not shown: His-tag added to the C-terminus
Described as above. As to the method:
as §1
T11 sequence (P08637 17-208 F176V): as the sequence (P08637 17-208 F176V) above

For assay [17], the target named is T12, human FcγRIIaR extracellular domain, His-tagged (human, UniProt P12318 34-217).
T12 construct: also called human FcγRIIa (type R); FcgRIIaR
T12 chain: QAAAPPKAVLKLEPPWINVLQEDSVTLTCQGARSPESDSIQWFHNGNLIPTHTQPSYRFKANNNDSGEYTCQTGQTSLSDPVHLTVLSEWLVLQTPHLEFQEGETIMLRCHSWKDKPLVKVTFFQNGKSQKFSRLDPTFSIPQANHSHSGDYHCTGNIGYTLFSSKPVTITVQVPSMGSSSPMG
Briefly: SPR (BIACORE), antibody captured, FcγR analyte, 25 C; KD of SG1 divided by KD of variant.

Assay [18] has as its target T13, cynomolgus monkey FcγRIIIaS extracellular domain, His-tagged (cynomolgus monkey, UniProt Q8SPW2 21-206 at identity 1.00)).
T13 construct: also called cyno FcγRIIIaS; cynoFcgRIIIaS
T13 chain: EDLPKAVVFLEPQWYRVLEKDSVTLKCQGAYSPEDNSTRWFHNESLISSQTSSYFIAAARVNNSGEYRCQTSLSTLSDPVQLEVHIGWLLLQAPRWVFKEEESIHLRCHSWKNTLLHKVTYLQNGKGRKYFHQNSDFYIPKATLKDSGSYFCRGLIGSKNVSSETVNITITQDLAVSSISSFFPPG
The description is as above.

B1: MS1032LO06-MY009 (antibody, human IgG1, kappa)
heavy: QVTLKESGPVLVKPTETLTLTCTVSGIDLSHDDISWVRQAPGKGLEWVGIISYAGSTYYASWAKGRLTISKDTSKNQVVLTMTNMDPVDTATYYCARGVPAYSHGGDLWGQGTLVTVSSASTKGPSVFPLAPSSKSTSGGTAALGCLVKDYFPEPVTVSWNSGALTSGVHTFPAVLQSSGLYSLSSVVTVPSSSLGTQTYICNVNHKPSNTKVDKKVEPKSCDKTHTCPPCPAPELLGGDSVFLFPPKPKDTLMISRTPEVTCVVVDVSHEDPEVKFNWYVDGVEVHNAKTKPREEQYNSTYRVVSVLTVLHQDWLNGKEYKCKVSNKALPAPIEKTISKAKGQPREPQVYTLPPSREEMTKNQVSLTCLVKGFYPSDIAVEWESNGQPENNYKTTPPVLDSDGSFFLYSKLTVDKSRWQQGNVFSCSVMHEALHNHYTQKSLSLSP
light: DIVMTQSPATLSLSPGERATLSCTSSQSVYHANWLSWFQQKPGQPPKLLIYWASTLAYGVPSRFSGSGSGTDFTLTISSLQPEDAATYYCAGGYGGGRYAFGQGTKVEIKRTVAAPSVFIFPPSDEQLKSGTASVVCLLNNFYPREAKVQWKVDNALQSGNSQESVTEQDSKDSTYSLSSTLTLSKADYEKHKVYACEVTHQGLSSPVTKSFNRGEC
notes: SG1 with P238D (EU numbering); also called M103205H795-MY009/M103202L889-SK1
A word on the Kd: it is the concentration at which binding is half-saturated. B1: the dissociation constant (Kd) in assay [1] was 2 µM; in assay [2], 3.5 µM; in assay [3], 550 µM; in assay [4] it was 2 µM; in assay [5] it was 4.3 µM. Moreover, the “KD fold (SG1 = 1)” value is 0.2 in [6]; 3.3 in assay [7]; 0.01 in assay [8]; 0.002 in assay [9]; 0.2 in assay [10]; 0.1 in assay [11]. Moreover, the entries for the “KD fold (SG1 = 1)” value in [12], in assay [13] and in assay [14] were 0.4, 0.004 and 0.5, respectively.

B2: M103205H795-MY321/M103202L889-SK1 (antibody, human IgG1, kappa, name in EU numbering)
heavy: QVTLKESGPVLVKPTETLTLTCTVSGIDLSHDDISWVRQAPGKGLEWVGIISYAGSTYYASWAKGRLTISKDTSKNQVVLTMTNMDPVDTATYYCARGVPAYSHGGDLWGQGTLVTVSSASTKGPSVFPLAPSSKSTSGGTAALGCLVKDYFPEPVTVSWNSGALTSGVHTFPAVLQSSGLYSLSSVVTVPSSSLGTQTYICNVNHKPSNTKVDKKVEPKSCDKTHTCPPCPAPELLHGPSVFLFPPKPKDTLMISRTPEVTCVVVDVSDEDPEVKFNWYVDGVEVHNAKTKPREEQYNSTYRVVSVLTVLHQDWLNGKEYKCKVSNKALPKPIEKTISKAKGQPREPQVYTLPPSREEMTKNQVSLTCLVKGFYPSDIAVEWESNGQPENNYKTTPMVLDSDGSFFLYSKLTVDKSRWQQGNVFSCSVMHEALHNHYTQKSLSLSP
light: DIVMTQSPATLSLSPGERATLSCTSSQSVYHANWLSWFQQKPGQPPKLLIYWASTLAYGVPSRFSGSGSGTDFTLTISSLQPEDAATYYCAGGYGGGRYAFGQGTKVEIKRTVAAPSVFIFPPSDEQLKSGTASVVCLLNNFYPREAKVQWKVDNALQSGNSQESVTEQDSKDSTYSLSSTLTLSKADYEKHKVYACEVTHQGLSSPVTKSFNRGEC
notes: Fc variant made by introducing substitutions into M103205H795-SG1; expressed with M103202L889-SK1 as light chain; Substitution positions are EU numbering
Take B2: the results for the “KD fold for humanFcgRs (SG1 = 1)” value in assay [15] and in [16] were 9.7 fold and 0.24 fold, respectively.

B3: M103205H795-MY458/M103202L889-SK1 (antibody, human IgG1, kappa, name in EU numbering)
heavy: QVTLKESGPVLVKPTETLTLTCTVSGIDLSHDDISWVRQAPGKGLEWVGIISYAGSTYYASWAKGRLTISKDTSKNQVVLTMTNMDPVDTATYYCARGVPAYSHGGDLWGQGTLVTVSSASTKGPSVFPLAPSSKSTSGGTAALGCLVKDYFPEPVTVSWNSGALTSGVHTFPAVLQSSGLYSLSSVVTVPSSSLGTQTYICNVNHKPSNTKVDKKVEPKSCDKTHTCPPCPAYELLTGPSVFLFPPKPKDTLMISRTPEVTCVVVDVSDEDPEVKFNWYVDGVEVHNAKTKPREEQYNSTYRVVSVLTVLHQDWLNGKEYKCKVSNKALPKPIEKTISKAKGQPREPQVYTLPPSREEMTKNQVSLTCLVKGFYPSDIAVEWESNGQPENNYKTTPPVLDSDGSFFLYSKLTVDKSRWQQGNVFSCSVMHEALHNHYTQKSLSLSP
light: DIVMTQSPATLSLSPGERATLSCTSSQSVYHANWLSWFQQKPGQPPKLLIYWASTLAYGVPSRFSGSGSGTDFTLTISSLQPEDAATYYCAGGYGGGRYAFGQGTKVEIKRTVAAPSVFIFPPSDEQLKSGTASVVCLLNNFYPREAKVQWKVDNALQSGNSQESVTEQDSKDSTYSLSSTLTLSKADYEKHKVYACEVTHQGLSSPVTKSFNRGEC
Turning to B3, the results for the “KD fold (SG1 = 1)” value in [17] and in assay [18] were 4.3 fold and 0.2 fold, respectively.

The record behind these values is patent US20250076311A1 (Chugai, published 2025).
